Assays:
[1] = target: T1, Aβ(1-40 Cys) oligomer (Example 12A); assay: Biacore, antibody captured on anti-human Ig chip, cys-dimer peptide injected; legend: (-) indicates no binding
T1 construct: also called Aβ(1-40 Cys) dimer; cys-dimer peptide
Method: (§1) All transfectants that expressed immunoglobulin efficiently were tested in an ELISA based on binding to amyloid β peptide. Biosensor data is ranked on a qualitative affinity binding assessment of the antibody to the cys-dimer peptide as described below.
(§2) An anti-human immunoglobulin biosensor chip was prepared using a human antibody capture kit (Biacore, Sweden) as per manufacturer's instructions at flow rate of 5 μl/min with a 6 minute contact time during […] immobilisation. Approximately 10000 resonance units were achieved on all channels.

[2] = target: amyloid β peptide (antigen of the EIA of Table 2); assay: ELISA (EIA), amyloid β peptide immobilised; legend: (-) indicates no binding
Sequence of amyloid β peptide (antigen of the EIA of Table 2) (peptide, as listed by the source): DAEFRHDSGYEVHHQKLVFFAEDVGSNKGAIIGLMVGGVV
Method: as §1
Aβ(1-40) monomer, Aβ(1-40) oligomer, Aβ(1-40 Cys) oligomer, and control plate using bovine serum albumin (Sigma) or Aprotinin (Sigma) were immobilized at 1 μg/ml in PBS (50 μl per well) on a Nunc Maxisorb 96-well plate overnight at 4° C. Wells were washed once with 350 μl Wash Buffer (1×PBS, 0.05% (v/v) Tween-20 (Sigma)). Wells were then blocked with Blocking Buffer (2% (w/v) Difco Skim milk (BD) in PBS, 50-150 μl per well) for 2 hours at room-temperature and washed once with 350 μl Wash Buffer.

[3] = target: T2, Aβ(1-40) monomer (Example 12A); assay: Biacore, antibody captured on anti-human Ig chip, peptide injected
T2 construct: Sigma peptide, HFIP treated, kept in DMSO
Method: as §2

[4] = target: T1, Aβ(1-40 Cys) oligomer (Example 12A); assay: as above
Method: as §2

T1 sequence (peptide, as listed by the source): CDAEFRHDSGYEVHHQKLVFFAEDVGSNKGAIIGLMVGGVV

| Binder | binding result [1] | binding result [3] | binding result [4] | binding result [2] |
| --- | --- | --- | --- | --- |
| recombinant Aβ(21-37) autoantibody 54/62 (antibody, V domains shown) VH: EVQLVESGGGVVQPGGSLRLSCAASGFTFSSYWMSWVRQAPGKGLEWVASVKQDGSEKYYVDSVKGRFTISRDNAKNTLYLQMNSLRAEDTAVYYCARDGSSWYRDWFDPWGQGTLVTVS VL: DIVLTQSPATLSLSPGERVTITCRASQSVNSYLAWYQQKPGQAPRLLIYGASTRATGIPDRFSGSGSGTDFTLTISRLEPEDFAVYYCQQYGSSQGTFGPGTKVDIKR | no binding (tested: peptide 20-50 µg/ml) |  |  | no binding (tested: 100 µg/ml starting concentration) |
| recombinant Aβ(21-37) autoantibody 55/68 (antibody, V domains shown) VH: EVQLVESGGGVVQPGGSLRLSCAASGITFRSYDMSWVRQAPGKGLEWVASVKQDGSEKYYVDSVKGRFTVSRDNAKNTLYLQMNSLRAEDTAVYYCARDAGRWADLAFDIWGQGTLVTVS VL: DIQMTQSPGTLSLSPGERAALSCRASQSVSSYLAWYQQKPGQAPRLLIYAASIRATGIPDRFSGSGSGTDFTLTISRLEPEDFAVYYCQQYGSSQGTFGPGTKVDIKR | no binding (tested: peptide 20-50 µg/ml) |  |  | no binding (tested: 100 µg/ml starting concentration) |
| recombinant Aβ(21-37) autoantibody 50/62 (antibody, V domains shown) VH: EVQLVESGGGVVQPGGSLRLSCAASGFTFSSYWMSWVRQAPGKGLEWVASVKQDGSEKYYVDSVKGRFTISRDNAKNTLYLQMNSLRAEDTAVYYCARDGSSWYRDWFDPWGQGTLVTVS VL: DIQMTQSPATLSLSPGERAALSCRASQSVNSYLAWYQQKPGQAPRLLIYGAASRATGIPARFSGSGSGTDFTLTISRLEPEDFAVYYCQQYGSSQGTFGPGTKVDIKR | no binding (tested: peptide 20-50 µg/ml) |  |  | no binding (tested: 100 µg/ml starting concentration) |
| recombinant Aβ(21-37) autoantibody 50/67 (antibody, V domains shown) VH: EVQLVESGGGVVQPGGSLRLSCAASGFTFRSYWMHWVRQAPGKGLEWVASVKQDGSEKYYVDSVKGRVTISLDTSKNQFSLKLSSVTAADTAVYYCARDGSSWYRDWFDPWGQGTLVSVS VL: DIQMTQSPATLSLSPGERAALSCRASQSVNSYLAWYQQKPGQAPRLLIYGAASRATGIPARFSGSGSGTDFTLTISRLEPEDFAVYYCQQYGSSQGTFGPGTKVDIKR | no binding (tested: peptide 20-50 µg/ml) |  |  | no binding (tested: 100 µg/ml starting concentration) |
| recombinant Aβ(21-37) autoantibody 50/69 (antibody, V domains shown) VH: EVQLVESGGGVVQPGGSLRLSCAASGFTFRSYWMHWVRQAPGKGLEWVASVKQDGSEKYYVDSVKGRVTITADRAKNTLYLQMNSLRAEDTAVYYCARDGSSWYRDWFDPWGQGTLVTVS VL: DIQMTQSPATLSLSPGERAALSCRASQSVNSYLAWYQQKPGQAPRLLIYGAASRATGIPARFSGSGSGTDFTLTISRLEPEDFAVYYCQQYGSSQGTFGPGTKVDIKR |  |  |  | no binding (tested: 100 µg/ml starting concentration) |
| recombinant Aβ(21-37) autoantibody 47/56 (antibody, V domains shown) VH: EVQLVESGGGVVQPGGSLRLSCAASGFTFRSYWMSWVRQAPGKGLEWVASVKQDGSEKYYVDSVKGRFTISRDTSKNTLYLQMNSLRAEDTAVYYCARDASSWYRDWFDPWGQGTLVTVS VL: EIVLTQSPATLSLSPGERVTITCRASQSVNSYLAWYQQKPGQAPRLLIYGASTRATGIPDRFSGSGSGTDFTLTISRLEPEDFAVYYCQQYGSSQGTFGPGTKVDIKR |  | no binding | no binding | no binding (tested: 100 µg/ml starting concentration) |

More lines, main results first:

| binding result [1] | binding result [3] | binding result [4] | Binder | binding result [2] |
| --- | --- | --- | --- | --- |
| no binding (tested: peptide 20-50 µg/ml) |  |  | recombinant Aβ(21-37) autoantibody 54/68 (antibody, V domains shown) VH: EVQLVESGGGVVQPGGSLRLSCAASGITFRSYDMSWVRQAPGKGLEWVASVKQDGSEKYYVDSVKGRFTVSRDNAKNTLYLQMNSLRAEDTAVYYCARDAGRWADLAFDIWGQGTLVTVS VL: DIVLTQSPATLSLSPGERVTITCRASQSVNSYLAWYQQKPGQAPRLLIYGASTRATGIPDRFSGSGSGTDFTLTISRLEPEDFAVYYCQQYGSSQGTFGPGTKVDIKR | no binding (tested: 100 µg/ml starting concentration) |
| no binding (tested: peptide 20-50 µg/ml) |  |  | recombinant Aβ(21-37) autoantibody 50/68 (antibody, V domains shown) VH: EVQLVESGGGVVQPGGSLRLSCAASGITFRSYDMSWVRQAPGKGLEWVASVKQDGSEKYYVDSVKGRFTVSRDNAKNTLYLQMNSLRAEDTAVYYCARDAGRWADLAFDIWGQGTLVTVS VL: DIQMTQSPATLSLSPGERAALSCRASQSVNSYLAWYQQKPGQAPRLLIYGAASRATGIPARFSGSGSGTDFTLTISRLEPEDFAVYYCQQYGSSQGTFGPGTKVDIKR | no binding (tested: 100 µg/ml starting concentration) |
| no binding (tested: peptide 20-50 µg/ml) |  |  | recombinant Aβ(21-37) autoantibody 55/62 (antibody, V domains shown) VH: EVQLVESGGGVVQPGGSLRLSCAASGFTFSSYWMSWVRQAPGKGLEWVASVKQDGSEKYYVDSVKGRFTISRDNAKNTLYLQMNSLRAEDTAVYYCARDGSSWYRDWFDPWGQGTLVTVS VL: DIQMTQSPGTLSLSPGERAALSCRASQSVSSYLAWYQQKPGQAPRLLIYAASIRATGIPDRFSGSGSGTDFTLTISRLEPEDFAVYYCQQYGSSQGTFGPGTKVDIKR | no binding (tested: 100 µg/ml starting concentration) |
| no binding (tested: peptide 20-50 µg/ml) |  |  | recombinant Aβ(21-37) autoantibody 51/62 (antibody, V domains shown) VH: EVQLVESGGGVVQPGGSLRLSCAASGFTFSSYWMSWVRQAPGKGLEWVASVKQDGSEKYYVDSVKGRFTISRDNAKNTLYLQMNSLRAEDTAVYYCARDGSSWYRDWFDPWGQGTLVTVS VL: EIVLTQSPATLSLSPGERVTITCRESQGIRNYLAWYQQKPGQAPRLLIYGASTRATGIPDRFSGSGSGTDFTLTISRLEPEDFAVYYCQQYGSSQGTFGPGTKVDIKR | no binding (tested: 100 µg/ml starting concentration) |
| no binding (tested: peptide 20-50 µg/ml) |  |  | recombinant Aβ(21-37) autoantibody 55/69 (antibody, V domains shown) VH: EVQLVESGGGVVQPGGSLRLSCAASGFTFRSYWMHWVRQAPGKGLEWVASVKQDGSEKYYVDSVKGRVTITADRAKNTLYLQMNSLRAEDTAVYYCARDGSSWYRDWFDPWGQGTLVTVS VL: DIQMTQSPGTLSLSPGERAALSCRASQSVSSYLAWYQQKPGQAPRLLIYAASIRATGIPDRFSGSGSGTDFTLTISRLEPEDFAVYYCQQYGSSQGTFGPGTKVDIKR | no binding (tested: 100 µg/ml starting concentration) |
